Where two headings read alike, the source gives them in different places.
Assays:
[1] = biological target: T1, human PD-1 expressed on cells (UniProt Q15116 25-288); assay: FACS binding
[2] = biological target: T1, human PD-1 expressed on cells; assay: FACS ligand competition (PD-L1 Fc)
[3] = biological target: T1, human PD-1 expressed on cells; assay: FACS binding; remark: listed apart in the source
[4] = biological target: T1, human PD-1 expressed on cells; assay: FACS competition with PD-L1 Fc
[5] = biological target: recombinant PD-1 extracellular domain (ECD) protein (UniProt Q15116 25-170); assay: SPR
[6] = biological target: T1, human PD-1 expressed on cells; assay: FACS binding; remark: listed apart in the source

T1 sequence (Q15116 25-288): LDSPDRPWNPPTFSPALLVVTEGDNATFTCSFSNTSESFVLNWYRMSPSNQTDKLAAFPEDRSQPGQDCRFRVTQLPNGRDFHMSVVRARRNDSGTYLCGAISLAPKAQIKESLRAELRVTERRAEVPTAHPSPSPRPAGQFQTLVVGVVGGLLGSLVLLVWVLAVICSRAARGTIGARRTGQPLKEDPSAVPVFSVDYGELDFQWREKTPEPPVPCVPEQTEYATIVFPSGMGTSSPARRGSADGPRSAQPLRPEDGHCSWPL
Chain of recombinant PD-1 extracellular domain (ECD) protein (Q15116 25-170): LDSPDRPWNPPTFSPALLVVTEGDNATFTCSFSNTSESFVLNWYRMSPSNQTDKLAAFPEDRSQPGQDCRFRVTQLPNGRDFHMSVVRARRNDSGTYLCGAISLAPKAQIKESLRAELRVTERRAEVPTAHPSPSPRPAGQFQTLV

| Binder | EC50 [1] [nM] | IC50 [2] [nM] | further results |
| --- | --- | --- | --- |
| AS25064_HCAb (antibody, V domains shown) VH: QVQLVESGGGSVQAGGSLRLTCAATGYSWRPDCMGWYRQAAEKEREGVAVIDADGITSYADAAKGRFTISRDNNKITLYLQMLKPDDTGMYVCVVGWRVSSGGNCQFNDYWGQGTQVTVSS | 5.46 | 2.91 | – |
| A31543 sdAb (VHH) VHH: QVQLVESGGGKVQPGGSLRLSCAASGGTLDYYAIGWFRQAPGKEREAVSCISSSDGSTYYADSVKGRFTISRDNAKNTVYLQMNSLKPGDTAVYHCATDRACGSSWLGAESWAQGTQVTVSS | – | – | EC50 [3]: 41.2 nM; IC50 [4]: 21.1 nM |
| AS06962 sdAb (VHH) VHH: QVHLVDSGGGLVQPGGSLRLSCAASGSITSRNTMGWYRQVPGKQRELVALIATFVTHYADSVKGRFTISRDNARKMVFLEMNSLQPEDTGAYYCYVDVSPYWGRGTQVTVSS | – | – | Kd [5]: 0.454 nM; EC50 [3]: 79.2 nM; IC50 [4]: 193 nM |
| AS15872 sdAb (VHH) VHH: QVQLVESGGGLVQPGGSLTLSCAASGFTFSTAAMSWVRQVPEEGLEWVASIDSSGSRTYYAGSVKGRFTISRDNAKNTLYLQLNSLKAEDTAMYYCAKDHMSWLPRGQGTQVTVSS | – | – | Kd [5]: 14.5 nM |
| AS24984_HCAb (antibody, V domains shown) VH: QVHLMESGGGSVPSGGSLRLSCAVSGSGYSYSRGCFAWFQQRPGKEREGVAIINMDGHTRYSDSVQGRFIISQDKAKNTLHLQMNTLRPDDTAMYYCAYDRSQCYVLSDRLRLPGTFSDWGQGTQVTVSS | 7.22 | 4.59 | – |
| AS25067_HCAb (antibody, V domains shown) VH: QVHLMESGGGAVQTGGSLRLSCAVSGISISPDCMGWFRQAPGKKREAVTTIFANTGSARYGDSVKGRFTSSQGNAKNTLYLQMDSVKLDDTGTYYCAARFTGGDCFDHQPLAWRFWGQGTQVTVSS | 4.96 | 3.51 | – |
| AS15892 sdAb (VHH) VHH: QIQLVESGGGSVQAGGSLRLSCAASGFTDSSYCGAWFRQVPGKEREGVAIIDRYGGTMYKDSVKGRFTISKDTAKNILYLQMNSLKLEDTAMYYCAAAEYRGSSCDAESGYWGQGTQVTVSS | – | – | Kd [5]: 2.67 nM |
| AS15883 sdAb (VHH) VHH: QVHLMESGGGSVQAGGSLTLSCAASVFTDSNYCMAWFRQVPGKEREGVAIIDRYGGTMYKDSVKGRFTISKDTAKNILYLQMNSLKLEDTAMYYCAAAGYRGSSCDADSGYWGQGTQVTVSS | – | – | Kd [5]: 2.78 nM |
| AS15881 sdAb (VHH) VHH: QVQLVESGGGSVQAGGSLRLSCAASGFTDSSYCGAWFRQVPGKEREGVAIIDRYGGTMYKDSVKGRFTISKDTAKNILYLQMNSLKLEDTAMYYCAAAEYRGSSCDAESGYWGQGTQVTVSS | – | – | Kd [5]: 2.31 nM |
| AS25117_HCAb (antibody, V domains shown) VH: EVQLAESGGGSVQAGGSLRLSCVISGTSISPDCMGWFRQAPGKKREAVMSIFTNTGSTRYGDSVKGRFTSSQGNAKNTLYLQMDSLKLDDTATYYCAARYTGGDCFNLEPLAWRFWGQGTQVTVSS | 3.22 | 2.06 | – |
| AS25071_HCAb (antibody, V domains shown) VH: EVQLAESGGGSVQSGGSLRLSCAVSGSGYSYSRGCFAWFQQRPGKEREGVAIINSDGHTAYSDSVQGRFIISQDKAKNTLYLQMNSLKPDDTAMYYCAYDRSQCYVLRDRLRLPDTFTDWGQGTQVTVSS | 4.74 | 2.41 | – |
| AS15899 sdAb (VHH) VHH: QVQLVESGGGSVQAGGSLRLSCAASGYTAGSLCMGWFRQAPGKEREGVAAIYTGGGSTYYADSVKGRFTISQDNAKNTVYLQMNSLKPEDTAQYYCGAGSREDYCDRGYIYDHWGQGTQVTVSS | – | – | Kd [5]: 3.22 nM |
| AS25037_HCAb (antibody, V domains shown) VH: EVQLAESGGGSVQAGGSLKLSCLASQWISSDCGMAWYRQAPGKERELVSRISSDDTTTYADSVKGRFTISQDSAKNTLYLQMNKLKTEDTGVYYCAAEAKSTITSLCYPLNYWGQGTQVTVSS | 6.62 | 6.58 | – |
| AS25115_HCAb (antibody, V domains shown) VH: QVHLVESGGASVQAGGSLRLSCAATAYTASNYCMGWFRQSPGKEREAVASINDDGVTSYADSVKGRFTISQDSAKKTLYLQMNRLKPEDTAMYYCAATPDGYCYAERLSRWRYEFWGQGTQVTVSS | 4.06 | 2.15 | – |

Second part, led by results:

| EC50 [1] [nM] | IC50 [2] [nM] | Binder | further results |
| --- | --- | --- | --- |
| 3.29 | 1.57 | AS25119_HCAb (antibody, V domains shown) VH: QVQLVESGGGSVQAGGPLRLTCAATGYSWRPDCMGWYRQAAEKEREGVAVIDADGITSYADAAKGRFTISRDNNNITLYLQMLKPDDTGMYVCVIGWRVSSGGNCQFNDYWGQGTQVTVSS | – |
| 4.59 | 1.66 | AS25222_HCAb (antibody, V domains shown) VH: QIQLVESGGGSVQAGGSLRLSCAVTGISISPDCMGWFRQAPGKKREAVATIFTNTASTRYGDSVKGRFTSSQGNGKNTLYLQMDSLNVDDTATYYCAARYTGGNCFNLEPLAWHFWGQGTQVTVSS | – |
| 4.04 | 2.44 | AS25457_HCAb (antibody, V domains shown) VH: QVQLVESGGGSVQAGGSLRLSCAVSGISISPDCMGWFRQAPGKKREAVATIFTNTRSTRYGDSVKGRFTSSQGNAKNTLYLQMDSLKLDDTATYYCAARYTGGDCFNLEPVAWRFWGQGTQVTVSS | – |
| 3.84 | 1.34 | AS25396_HCAb (antibody, V domains shown) VH: QVHLMESGGGSVQAGGSLRLSCVVSGISISPDCMGWFRQAPGKKREAVATIFTNTRRTRYGDSVKGRVTSSQGNAKNTLYLKMDNLRHDDTATYYCAARYTGGDCFNLDPLSWRFWGQGTQVTVSS | – |
| 6.15 | 3.25 | AS25164_HCAb (antibody, V domains shown) VH: EVQLVESGGGSVQSGGSLRLSCAVSGSGYSYNRGCFAWFQQRPGKEREGVAIINSDGHTTYGDSVQGRFIISQDKAKNTLDLQMNSLKPDDTAMYYCAYDRNQCYVLRDRLRLPDTFTDWGQGTQVTVSS | – |
| 9.18 | 6.04 | AS25156_HCAb (antibody, V domains shown) VH: EVQLVESGGGSVQSGGSLRLSCAVSGSGYSYSRGCFAWFQQRPGKEREGVAIINSDGHTRYSDSVQGRFIISQDKAKNTLYLQMNSLKPDDTAMYYCAYDCSQCYVLRDRLRLPDTFTDWGQGTQVTVSS | EC50 [6]: 9.18 nM |
| 10.7 | 8 | AS25149_HCAb (antibody, V domains shown) VH: QVQLVESGGGSVQSGGSLKLSCAVSGSGYSYSRGCFAWFQQRPGKEREGVAIINSDGHTRYSDSVQGRFIISQDKAKNTLYLQMNSLKPDDAAMYYCAYDRNQCYVLLDRLRLPGTFSDWGQGTQVTVSS | – |
| 4.91 | 2.7 | AS25435_HCAb (antibody, V domains shown) VH: QVQLVESGGGSVQAGGSLRLSCAATAYTASFYCMGWFRQAPGKEREAVASINDDGVTMYADSVKGQFTISQDSATKTLYLQMNRLKPEDTAMYYCAATPEGYCYAERLSTWRYTFWGQGTQVTVSS | – |

— patent US20200347135A1 (published 2020)
